Test results published in paper PMC11020753, “Contribution of amino acids in the active site of dipeptidyl peptidase 4 to the catalytic action of the enzyme” (PLOS ONE, 2024).
Non-standard residues stand in square brackets, D forms with d. Residues, ends and D or L forms follow the SMILES beside them. Tle = CC(C)(C)[C@H](N)C(=O)O

What was measured:
Type in all cases: biochemical
[1] = target: T1, DP4 variant E205A (Homo sapiens, UniProt P27487, E205A); assay: IC50 determination with substrate Gly-Pro-AMC; settings: 100 mM HEPES-buffer (pH 7.6), T = 30 °C, substrate Gly-Pro-AMC in the range of Km
T1 construct: His(6)-37-766 hDP4 containing fractions were concentrated to 1 ml as described above; His6 (N); made in house; host or cells: Pichia pastoris X-33, vector pPICZα C (secreted)
Method: (§1) The reactions were performed in 100 mM HEPES buffer, pH 7.6 at 30°C in a total assay volume of 270 μl by using 96-well plates. […] Fluorescence was detected with a […]luor Plus (TECAN) at an excitation wavelength of 380 nm and an emission wavelength of 465 nm.

[2] = target: T2, DP4 variant N710Q (Homo sapiens, UniProt P27487, N710Q); assay: IC50 determination with substrate Gly-Pro-AMC; settings: bounds given in mM, 100 mM HEPES-buffer (pH 7.6), T = 30 °C, substrate Gly-Pro-AMC in the range of Km
T2 construct: His(6)-37-766 hDP4 containing fractions were concentrated to 1 ml; made in house; host or cells: Pichia pastoris X-33 (vector pPICZα C, secreted)
Method: as §1

[3] = target: T3, DP4 variant R125K (Homo sapiens, UniProt P27487, R125K); assay: IC50 determination with substrate Gly-Pro-AMC; settings: 100 mM HEPES-buffer (pH 7.6), T = 30 °C, substrate Gly-Pro-AMC in the range of Km
T3 construct: His(6)-37-766 hDP4 containing fractions were concentrated to 1 ml; made in house; host or cells: Pichia pastoris X-33 (vector pPICZα C, secreted)
Method: as §1

[4] = target: T4, wild type DP4 (Homo sapiens, UniProt P27487); assay: IC50 determination with substrate Gly-Pro-AMC; settings: 100 mM HEPES-buffer (pH 7.6), T = 30 °C, substrate Gly-Pro-AMC in the range of Km
T4 construct: His(6)-37-766 hDP4 containing fractions were concentrated to 1 ml; made in house; host or cells: Pichia pastoris X-33 (vector pPICZα C, secreted)
Method: as §1

[5] = target: T5, DP4 variant R125A (Homo sapiens, UniProt P27487, R125A); assay: IC50 determination with substrate Gly-Pro-AMC; settings: 100 mM HEPES-buffer (pH 7.6), T = 30 °C, substrate Gly-Pro-AMC in the range of Km
T5 construct: His(6)-37-766 hDP4 containing fractions were concentrated to 1 ml; made in house; host or cells: Pichia pastoris X-33 (vector pPICZα C, secreted)
Method: as §1

[6] = target: T6, DP4 variant N710D (Homo sapiens, UniProt P27487, N710D); assay: IC50 determination with substrate Gly-Pro-AMC; settings: 100 mM HEPES-buffer (pH 7.6), T = 30 °C, substrate Gly-Pro-AMC in the range of Km
T6 construct: His(6)-37-766 hDP4 containing fractions were concentrated to 1 ml; made in house; host or cells: Pichia pastoris X-33 (vector pPICZα C, secreted)
Method: as §1

[7] = target: T7, DP4 variant N710A (Homo sapiens, UniProt P27487, N710A); assay: IC50 determination with substrate Gly-Pro-AMC; settings: 100 mM HEPES-buffer (pH 7.6), T = 30 °C, substrate Gly-Pro-AMC in the range of Km
T7 construct: His(6)-37-766 hDP4 containing fractions were concentrated to 1 ml; made in house; host or cells: Pichia pastoris X-33 (vector pPICZα C, secreted)
Method: as §1

[8] = target: T8, DP4 variant E206A (Homo sapiens, UniProt P27487, E206A); assay: IC50 determination with substrate Gly-Pro-AMC; settings: bounds given in mM, 100 mM HEPES-buffer (pH 7.6), T = 30 °C, substrate Gly-Pro-AMC in the range of Km
T8 construct: His(6)-37-766 hDP4 containing fractions were concentrated to 1 ml as described above; His6 (N); made in house; host or cells: Pichia pastoris X-33, vector pPICZα C (secreted)
Method: as §1

[9] = target: T3, DP4 variant R125K; assay: Cleavage of peptide hormones by MALDI-TOF mass spectrometry; set-up: key: +++: hydrolysis is comparable with the data obtained from the wild type enzyme; -: hydrolysis below 0,01% of the wild type enzyme; settings: T = 37 °C, 100 mM Tris-HCl, pH 7.6, substrate concentration 25 μM
Method: (§2) Enzyme concentration 5 x 10^−9 M, substrate concentration 25 μM, reaction time 1–3 hours, depending on the respective hydrolysis rate. Reactions were stopped by addition of 1 volume DHAP/DAHC-matrix, dissolved in 50% (v/v) acetonitrile, after certain time points. The matrix-sample mixture was placed in a vacuum, which caused the proteins to crystallize together with the matrix. Using the mass spectrometer "LD-TOF System G2025" from Hewlett Packard, the relative amount of substrate and respective product peaks in the samples could be determined. Relative hydrolysis rates were depicted by plotting relative substrate concentration against time.

[10] = target: T4, wild type DP4; assay: as above; set-up: key: +++: hydrolysis is comparable with the data obtained from the wild type enzyme; -: hydrolysis below 0,01% of the wild type enzyme; settings: T = 37 °C, 100 mM Tris-HCl, pH 7.6, substrate concentration 25 μM
Method: as §2

[11] = target: T1, DP4 variant E205A; assay: Km and kcat determination by LC/MS-MS assay; settings: hydrolysis of peptide hormone, 10 mM Tris-buffer (pH 7.6), T = 30 °C
Method: (§3) Therefore, DP4 was incubated with different substrate concentrations in 10 mM Tris-buffer pH 7.6 at 30°C. Enzyme concentrations and incubation times were chosen to obtain a linear product formation. After selected time points, samples were taken and the reaction stopped by addition of 19 volumes 0,1% HCOOH. Cleavage products were quantified in the respective samples by LC/MS-MS assay.

[12] = target: T2, DP4 variant N710Q; assay: Km and kcat determination by LC/MS-MS assay; settings: hydrolysis of peptide hormone, 10 mM Tris-buffer (pH 7.6), T = 30 °C
Method: as §3

[13] = target: T3, DP4 variant R125K; assay: Km and kcat determination by LC/MS-MS assay; settings: hydrolysis of peptide hormone, 10 mM Tris-buffer (pH 7.6), T = 30 °C
Method: as §3

[14] = target: T4, wild type DP4; assay: Km and kcat determination by LC/MS-MS assay; settings: hydrolysis of peptide hormone, 10 mM Tris-buffer (pH 7.6), T = 30 °C
Method: as §3

[15] = target: T5, DP4 variant R125A; assay: Km and kcat determination by LC/MS-MS assay; settings: hydrolysis of peptide hormone, 10 mM Tris-buffer (pH 7.6), T = 30 °C
Method: as §3

[16] = target: T6, DP4 variant N710D; assay: Km and kcat determination by LC/MS-MS assay; settings: hydrolysis of peptide hormone, 10 mM Tris-buffer (pH 7.6), T = 30 °C
Method: as §3

[17] = target: T7, DP4 variant N710A; assay: Km and kcat determination by LC/MS-MS assay; settings: hydrolysis of peptide hormone, 10 mM Tris-buffer (pH 7.6), T = 30 °C
Method: as §3

[18] = target: T8, DP4 variant E206A; assay: Km and kcat determination by LC/MS-MS assay; settings: hydrolysis of peptide hormone, 10 mM Tris-buffer (pH 7.6), T = 30 °C
Method: as §3

[19] = target: T1, DP4 variant E205A; assay: Cleavage of peptide hormones by MALDI-TOF mass spectrometry; settings: T = 37 °C, 100 mM Tris-HCl, pH 7.6, substrate concentration 25 μM
Method: as §2

[20] = target: T2, DP4 variant N710Q; assay: as above; settings: T = 37 °C, 100 mM Tris-HCl, pH 7.6, substrate concentration 25 μM
Method: as §2

[21] = target: T5, DP4 variant R125A; assay: as above; settings: T = 37 °C, 100 mM Tris-HCl, pH 7.6, substrate concentration 25 μM
Method: as §2

[22] = target: T6, DP4 variant N710D; assay: as above; settings: T = 37 °C, 100 mM Tris-HCl, pH 7.6, substrate concentration 25 μM
Method: as §2

[23] = target: T7, DP4 variant N710A; assay: as above; settings: T = 37 °C, 100 mM Tris-HCl, pH 7.6, substrate concentration 25 μM
Method: as §2

[24] = target: T8, DP4 variant E206A; assay: as above; settings: T = 37 °C, 100 mM Tris-HCl, pH 7.6, substrate concentration 25 μM
Method: as §2

T1 sequence (P27487 37-766 E205A): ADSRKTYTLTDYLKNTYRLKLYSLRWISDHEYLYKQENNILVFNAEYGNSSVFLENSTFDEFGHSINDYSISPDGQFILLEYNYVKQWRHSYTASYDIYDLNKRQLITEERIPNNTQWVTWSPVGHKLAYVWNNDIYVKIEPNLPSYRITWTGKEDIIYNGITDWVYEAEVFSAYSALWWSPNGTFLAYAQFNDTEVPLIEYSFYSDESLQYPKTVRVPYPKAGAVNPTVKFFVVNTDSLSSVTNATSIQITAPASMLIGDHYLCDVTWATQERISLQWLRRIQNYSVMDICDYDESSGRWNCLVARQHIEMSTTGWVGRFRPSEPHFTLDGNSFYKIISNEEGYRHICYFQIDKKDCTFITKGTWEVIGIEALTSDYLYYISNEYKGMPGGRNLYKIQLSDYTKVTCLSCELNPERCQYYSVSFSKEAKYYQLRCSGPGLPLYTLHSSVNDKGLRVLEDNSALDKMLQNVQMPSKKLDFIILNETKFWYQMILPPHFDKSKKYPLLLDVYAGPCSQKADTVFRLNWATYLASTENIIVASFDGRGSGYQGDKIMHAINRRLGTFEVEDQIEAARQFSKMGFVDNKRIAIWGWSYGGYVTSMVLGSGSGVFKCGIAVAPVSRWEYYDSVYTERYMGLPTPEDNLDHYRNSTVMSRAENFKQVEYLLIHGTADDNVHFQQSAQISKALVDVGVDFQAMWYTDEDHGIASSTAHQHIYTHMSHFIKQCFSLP
T4 sequence (P27487 37-766): as the sequence (P27487 37-766 E205A) above, with A169E counted along it
T8 sequence (P27487 37-766 E206A): as the sequence (P27487 37-766 E205A) above, with A169E, E170A counted along it
T3 sequence (P27487 37-766 R125K): as the sequence (P27487 37-766 E205A) above, with R89K, A169E counted along it
T5 sequence (P27487 37-766 R125A): as the sequence (P27487 37-766 E205A) above, with R89A, A169E counted along it
T7 sequence (P27487 37-766 N710A): as the sequence (P27487 37-766 E205A) above, with A169E, N674A counted along it
T6 sequence (P27487 37-766 N710D): as the sequence (P27487 37-766 E205A) above, with A169E, N674D counted along it
T2 sequence (P27487 37-766 N710Q): as the sequence (P27487 37-766 E205A) above, with A169E, N674Q counted along it

Molecule	Hydrolysis of peptide hormone in comparison to the DP4 wild type enzyme [9]	Hydrolysis of peptide hormone in comparison to the DP4 wild type enzyme [10]	kcat [13]	kcat [14]	kcat [15]	Hydrolysis of peptide hormone in comparison to the DP4 wild type enzyme [19]	Hydrolysis of peptide hormone in comparison to the DP4 wild type enzyme [20]	Hydrolysis of peptide hormone in comparison to the DP4 wild type enzyme [22]	Hydrolysis of peptide hormone in comparison to the DP4 wild type enzyme [23]	Hydrolysis of peptide hormone in comparison to the DP4 wild type enzyme [24]	other results
CC[C@H](C)[C@H](NC(=O)[C@@H]1CCCN1C(=O)[C@@H](N)C(C)(C)C)C(N)=O [t-Bu-Gly-Pro-Ile-NH2, t-Butyl-Gly-Pro-Ile-NH2] (H-[Tle]-Pro-Ile-NH2)	–	–	–	–	–	–	–	–	–	–	IC50 [1]: 1.3 mM; IC50 [2]: > 10 mM; IC50 [3]: 53 µM; IC50 [4]: 6.7 µM; IC50 [5]: 80 µM; IC50 [6]: 400 µM; IC50 [7]: 140 µM; IC50 [8]: > 10 mM
NP Y: physiological DP4 substrate, peptide hormone, proline in P1 position (H2N-Y-P-S…)	+++	+++	32 ± 0.5 s⁻¹	37 ± 2.7 s⁻¹	23 ± 0.9 s⁻¹	–	–	–	–	–	Km [11]: 180 µM; kcat [11]: 11 ± 0.7 s⁻¹; Km [12]: 510 µM; kcat [12]: 2.0 ± 0.32 s⁻¹; Km [13]: 52 µM; Km [14]: 13 µM; Km [15]: 150 µM; Km [16]: 190 µM; kcat [16]: 12 ± 0.9 s⁻¹; Km [17]: 83 µM; kcat [17]: 1.8 ± 0.08 s⁻¹; Km [18]: 98 µM
PACAP38: physiological DP4 substrate, peptide hormone, serine in P1 position (H2N-H-S-Q…)	- (hydrolysis below 0,01% of the wild type enzyme)	+++	–	–	–	- (hydrolysis below 0,01% of the wild type enzyme)	- (hydrolysis below 0,01% of the wild type enzyme)	- (hydrolysis below 0,01% of the wild type enzyme)	- (hydrolysis below 0,01% of the wild type enzyme)	- (hydrolysis below 0,01% of the wild type enzyme)	Hydrolysis of peptide hormone in comparison to the DP4 wild type enzyme [21]: - (hydrolysis below 0,01% of the wild type enzyme)
glucose-dependent insulinotropic peptide [GIP]	–	+++	0.88 ± 0.08 s⁻¹	3.9 ± 0.2 s⁻¹	0.16 ± 0.08 s⁻¹	- (hydrolysis below 0,01% of the wild type enzyme)	- (hydrolysis below 0,01% of the wild type enzyme)	- (hydrolysis below 0,01% of the wild type enzyme)	- (hydrolysis below 0,01% of the wild type enzyme)	- (hydrolysis below 0,01% of the wild type enzyme)	–
